# Assay results from patent US20140213513A1 (Sanofi, priority 2012, published 2014).
# *1 amine or outer side, *2 acyl side, *3 side chain or, on linkers, in order; H or OH if unused. Where no end group is shown, it is not given here. Side-chain parts run from the residue outwards. [ ]: non-standard residue; d: D form. The star is where a group is joined. γGlu = O=C(O)[C@H](CCC(=O)[*:2])N[*:1]; Palmitoyl = CCCCCCCCCCCCCCCC(=O)*; Aib = CC(C)(N)C(=O)O
# T1: human GIP receptor (human, UniProt P48546 22-466)
# T1 sequence (looked up): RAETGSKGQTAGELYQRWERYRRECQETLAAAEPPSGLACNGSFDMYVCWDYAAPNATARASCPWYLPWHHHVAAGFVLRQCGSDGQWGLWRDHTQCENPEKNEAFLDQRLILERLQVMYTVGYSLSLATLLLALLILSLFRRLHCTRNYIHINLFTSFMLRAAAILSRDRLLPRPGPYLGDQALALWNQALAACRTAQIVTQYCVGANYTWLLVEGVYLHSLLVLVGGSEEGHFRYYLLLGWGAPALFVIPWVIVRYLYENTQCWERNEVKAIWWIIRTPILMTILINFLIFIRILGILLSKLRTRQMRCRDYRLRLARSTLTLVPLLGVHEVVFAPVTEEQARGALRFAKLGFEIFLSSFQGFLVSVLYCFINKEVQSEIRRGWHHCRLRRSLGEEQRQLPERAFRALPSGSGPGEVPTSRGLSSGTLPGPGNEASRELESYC
# B1: exendin-4 peptide analogue SEQ ID NO: 51 (peptide)
# peptide: Y[Aib]QGTFTSDLSIQK([γGlu-Palmitoyl])DSRAQQDFIEWLKAGGPSSGAPPPS-NH2
# modifications: N-terminus assumed
# SMILES: CCCCCCCCCCCCCCCC(=O)N[C@@H](CCC(=O)NCCCC[C@H](NC(=O)[C@H](CCC(N)=O)NC(=O)[C@@H](NC(=O)[C@H](CO)NC(=O)[C@H](CC(C)C)NC(=O)[C@H](CC(=O)O)NC(=O)[C@H](CO)NC(=O)[C@@H](NC(=O)[C@H](Cc1ccccc1)NC(=O)[C@@H](NC(=O)CNC(=O)[C@H](CCC(N)=O)NC(=O)C(C)(C)NC(=O)[C@@H](N)Cc1ccc(O)cc1)[C@@H](C)O)[C@@H](C)O)[C@@H](C)CC)C(=O)N[C@@H](CC(=O)O)C(=O)N[C@@H](CO)C(=O)N[C@@H](CCCNC(=N)N)C(=O)N[C@@H](C)C(=O)N[C@@H](CCC(N)=O)C(=O)N[C@@H](CCC(N)=O)C(=O)N[C@@H](CC(=O)O)C(=O)N[C@@H](Cc1ccccc1)C(=O)N[C@H](C(=O)N[C@@H](CCC(=O)O)C(=O)N[C@@H](Cc1c[nH]c2ccccc12)C(=O)N[C@@H](CC(C)C)C(=O)N[C@@H](CCCCN)C(=O)N[C@@H](C)C(=O)NCC(=O)NCC(=O)N1CCC[C@H]1C(=O)N[C@@H](CO)C(=O)N[C@@H](CO)C(=O)NCC(=O)N[C@@H](C)C(=O)N1CCC[C@H]1C(=O)N1CCC[C@H]1C(=O)N1CCC[C@H]1C(=O)N[C@@H](CO)C(N)=O)[C@@H](C)CC)C(=O)O
# B2: exendin-4 peptide analogue SEQ ID NO: 47 (peptide)
# peptide: Y[Aib]QGTFTSDLSIQK([γGlu-Palmitoyl])DKRAVQLFIEWLKNGGPSSGAPPPS-NH2
# modifications: N-terminus assumed
# SMILES: CCCCCCCCCCCCCCCC(=O)N[C@@H](CCC(=O)NCCCC[C@H](NC(=O)[C@H](CCC(N)=O)NC(=O)[C@@H](NC(=O)[C@H](CO)NC(=O)[C@H](CC(C)C)NC(=O)[C@H](CC(=O)O)NC(=O)[C@H](CO)NC(=O)[C@@H](NC(=O)[C@H](Cc1ccccc1)NC(=O)[C@@H](NC(=O)CNC(=O)[C@H](CCC(N)=O)NC(=O)C(C)(C)NC(=O)[C@@H](N)Cc1ccc(O)cc1)[C@@H](C)O)[C@@H](C)O)[C@@H](C)CC)C(=O)N[C@@H](CC(=O)O)C(=O)N[C@@H](CCCCN)C(=O)N[C@@H](CCCNC(=N)N)C(=O)N[C@@H](C)C(=O)N[C@H](C(=O)N[C@@H](CCC(N)=O)C(=O)N[C@@H](CC(C)C)C(=O)N[C@@H](Cc1ccccc1)C(=O)N[C@H](C(=O)N[C@@H](CCC(=O)O)C(=O)N[C@@H](Cc1c[nH]c2ccccc12)C(=O)N[C@@H](CC(C)C)C(=O)N[C@@H](CCCCN)C(=O)N[C@@H](CC(N)=O)C(=O)NCC(=O)NCC(=O)N1CCC[C@H]1C(=O)N[C@@H](CO)C(=O)N[C@@H](CO)C(=O)NCC(=O)N[C@@H](C)C(=O)N1CCC[C@H]1C(=O)N1CCC[C@H]1C(=O)N1CCC[C@H]1C(=O)N[C@@H](CO)C(N)=O)[C@@H](C)CC)C(C)C)C(=O)O
# B3: exendin-4 peptide analogue SEQ ID NO: 50 (peptide)
# peptide: Y[Aib]QGTFTSDLSIQK([γGlu-Palmitoyl])DSRAVQDFIEWLKAGGPSSGAPPPS-NH2
# modifications: N-terminus assumed
# SMILES: CCCCCCCCCCCCCCCC(=O)N[C@@H](CCC(=O)NCCCC[C@H](NC(=O)[C@H](CCC(N)=O)NC(=O)[C@@H](NC(=O)[C@H](CO)NC(=O)[C@H](CC(C)C)NC(=O)[C@H](CC(=O)O)NC(=O)[C@H](CO)NC(=O)[C@@H](NC(=O)[C@H](Cc1ccccc1)NC(=O)[C@@H](NC(=O)CNC(=O)[C@H](CCC(N)=O)NC(=O)C(C)(C)NC(=O)[C@@H](N)Cc1ccc(O)cc1)[C@@H](C)O)[C@@H](C)O)[C@@H](C)CC)C(=O)N[C@@H](CC(=O)O)C(=O)N[C@@H](CO)C(=O)N[C@@H](CCCNC(=N)N)C(=O)N[C@@H](C)C(=O)N[C@H](C(=O)N[C@@H](CCC(N)=O)C(=O)N[C@@H](CC(=O)O)C(=O)N[C@@H](Cc1ccccc1)C(=O)N[C@H](C(=O)N[C@@H](CCC(=O)O)C(=O)N[C@@H](Cc1c[nH]c2ccccc12)C(=O)N[C@@H](CC(C)C)C(=O)N[C@@H](CCCCN)C(=O)N[C@@H](C)C(=O)NCC(=O)NCC(=O)N1CCC[C@H]1C(=O)N[C@@H](CO)C(=O)N[C@@H](CO)C(=O)NCC(=O)N[C@@H](C)C(=O)N1CCC[C@H]1C(=O)N1CCC[C@H]1C(=O)N1CCC[C@H]1C(=O)N[C@@H](CO)C(N)=O)[C@@H](C)CC)C(C)C)C(=O)O
# B4: exendin-4 peptide analogue SEQ ID NO: 48 (peptide)
# peptide: Y[Aib]QGTFTSDLSIQK([γGlu-Palmitoyl])DSEAAQDFIEWLKAGGPSSGAPPPS-NH2
# modifications: N-terminus assumed
# SMILES: CCCCCCCCCCCCCCCC(=O)N[C@@H](CCC(=O)NCCCC[C@H](NC(=O)[C@H](CCC(N)=O)NC(=O)[C@@H](NC(=O)[C@H](CO)NC(=O)[C@H](CC(C)C)NC(=O)[C@H](CC(=O)O)NC(=O)[C@H](CO)NC(=O)[C@@H](NC(=O)[C@H](Cc1ccccc1)NC(=O)[C@@H](NC(=O)CNC(=O)[C@H](CCC(N)=O)NC(=O)C(C)(C)NC(=O)[C@@H](N)Cc1ccc(O)cc1)[C@@H](C)O)[C@@H](C)O)[C@@H](C)CC)C(=O)N[C@@H](CC(=O)O)C(=O)N[C@@H](CO)C(=O)N[C@@H](CCC(=O)O)C(=O)N[C@@H](C)C(=O)N[C@@H](C)C(=O)N[C@@H](CCC(N)=O)C(=O)N[C@@H](CC(=O)O)C(=O)N[C@@H](Cc1ccccc1)C(=O)N[C@H](C(=O)N[C@@H](CCC(=O)O)C(=O)N[C@@H](Cc1c[nH]c2ccccc12)C(=O)N[C@@H](CC(C)C)C(=O)N[C@@H](CCCCN)C(=O)N[C@@H](C)C(=O)NCC(=O)NCC(=O)N1CCC[C@H]1C(=O)N[C@@H](CO)C(=O)N[C@@H](CO)C(=O)NCC(=O)N[C@@H](C)C(=O)N1CCC[C@H]1C(=O)N1CCC[C@H]1C(=O)N1CCC[C@H]1C(=O)N[C@@H](CO)C(N)=O)[C@@H](C)CC)C(=O)O
# B5: exendin-4 peptide analogue SEQ ID NO: 49 (peptide)
# peptide: Y[Aib]QGTFTSDLSIQK([γGlu-Palmitoyl])DSIAAQDFIEWLKAGGPSSGAPPPS-NH2
# modifications: N-terminus assumed
# SMILES: CCCCCCCCCCCCCCCC(=O)N[C@@H](CCC(=O)NCCCC[C@H](NC(=O)[C@H](CCC(N)=O)NC(=O)[C@@H](NC(=O)[C@H](CO)NC(=O)[C@H](CC(C)C)NC(=O)[C@H](CC(=O)O)NC(=O)[C@H](CO)NC(=O)[C@@H](NC(=O)[C@H](Cc1ccccc1)NC(=O)[C@@H](NC(=O)CNC(=O)[C@H](CCC(N)=O)NC(=O)C(C)(C)NC(=O)[C@@H](N)Cc1ccc(O)cc1)[C@@H](C)O)[C@@H](C)O)[C@@H](C)CC)C(=O)N[C@@H](CC(=O)O)C(=O)N[C@@H](CO)C(=O)N[C@H](C(=O)N[C@@H](C)C(=O)N[C@@H](C)C(=O)N[C@@H](CCC(N)=O)C(=O)N[C@@H](CC(=O)O)C(=O)N[C@@H](Cc1ccccc1)C(=O)N[C@H](C(=O)N[C@@H](CCC(=O)O)C(=O)N[C@@H](Cc1c[nH]c2ccccc12)C(=O)N[C@@H](CC(C)C)C(=O)N[C@@H](CCCCN)C(=O)N[C@@H](C)C(=O)NCC(=O)NCC(=O)N1CCC[C@H]1C(=O)N[C@@H](CO)C(=O)N[C@@H](CO)C(=O)NCC(=O)N[C@@H](C)C(=O)N1CCC[C@H]1C(=O)N1CCC[C@H]1C(=O)N1CCC[C@H]1C(=O)N[C@@H](CO)C(N)=O)[C@@H](C)CC)[C@@H](C)CC)C(=O)O
# Molecular target: human GLP-1 receptor (human, UniProt P43220 24-463)
# Experiment: cell-based or functional assay
row,Binder,EC50 hGLP-1 R
1,B1,4.2 pM
2,B2,15.6 pM
3,B3,10 pM
4,B4,10.1 pM
5,B5,17.2 pM

# Molecular target: T1, human GIP receptor
# Experiment: cell-based or functional assay
row,Binder,EC50 hGIP R
1,B1,6.3 pM
2,B2,44.2 pM
3,B3,47.9 pM
4,B4,15.8 pM
5,B5,45.6 pM

# Molecular target: human glucagon receptor (human, UniProt P47871 26-477)
# Experiment: cell-based or functional assay
# human glucagon receptor, sequence (P47871 26-477): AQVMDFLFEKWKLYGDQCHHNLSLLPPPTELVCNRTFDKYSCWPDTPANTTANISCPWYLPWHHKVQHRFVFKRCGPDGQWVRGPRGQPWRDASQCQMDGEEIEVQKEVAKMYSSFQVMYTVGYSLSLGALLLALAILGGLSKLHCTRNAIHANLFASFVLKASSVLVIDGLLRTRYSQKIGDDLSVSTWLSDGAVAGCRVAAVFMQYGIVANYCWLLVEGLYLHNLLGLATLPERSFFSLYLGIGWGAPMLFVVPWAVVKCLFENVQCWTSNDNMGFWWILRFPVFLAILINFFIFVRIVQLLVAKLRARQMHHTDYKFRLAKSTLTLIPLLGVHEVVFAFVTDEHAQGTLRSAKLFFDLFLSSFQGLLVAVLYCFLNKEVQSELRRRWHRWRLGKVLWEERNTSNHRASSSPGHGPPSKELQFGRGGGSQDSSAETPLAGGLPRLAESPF
row,Binder,EC50 hGLUC R
1,B1,571 pM
2,B2,2390 pM
3,B3,1720 pM
4,B4,478 pM
5,B5,195 pM
